Measured values taken from the DeepSol protein solubility set.

test: soluble on expression in E. coli; label from the status in PepcDB or PDB records

| Sequence | soluble on expression in E. coli |
| --- | --- |
| MGSDKIHHHHHHAEPAPSQEDMRLYTIASAPSAGRIEQDIKTLVGFGTRHTLSQTDSNAQGIGAARRWIETEFQRISAKCNGCLEVVTLSETVSGKRIPNPTEVVNVIAIQRGLTDPNRAVVMTGDIDSRVTDVMNSSAISPGANDNASGVAGTLEAARVLSQYQFAGTIIYAALSGEEQGLYGGDILINHAKAQGLQIQAVLNNDMIGNIAGINGVIDNHSVRVFSEGVRIAETSEEAKERYFSGGENDSASRNLARKIKSLADQYMTNLDVQLINRLDRFGRGGHHLPFNKAGFAAVRVMETNEHYHRQHQDIRTENGIAYGDVIEGVDFDFNAKLTALNAISLAAMAWAPAPPKEVKISGEVSADTVLKWTVNNKDKALVGYRVYWRNTTASEWTHSRYVGKLGQFTLKNLVIDNYLFGVASVSADGNTSPVVFPGAIGAF | not soluble |
| MGSDKIHHHHHHAEQKEEGISVLRYDKLLSEYVRSNSFSAMQKLTMDYRQPTKILIEDVLSIGTVKDDTISQRLQKFYSDSTLLRLLSDVEAKYPNLDEVEKGLTKGFRKLKKEVPDTKIPFIYSQISAFNESIILVDTLLGISLDKYMGEDYPLYKRFYYDYQCTSMRPERIVPDCFAFYLLSRYEMNYHEGTCLVDLMMHSGKINYVVQHLLGYDDIGQAMGYSDQENEWCRKNEKDIWEYICANDHLHARDPMVIRYYMKPAPTVDMLGGQAPALIGSWVGARIIASYMKKHKDLKIKDLLELTDYQSMFEESGYLKL | not soluble |
| MGSDKIHHHHHHAESDSFEDNSSNFESMISLYGIQSATVDSKVGDVPSVTAEEMASVLEALRQNGNTIRNCESETLEGYYEGGDRKEVKMIAEYQARTRSGAFVEQFALCVSVNFNIDNNGGVFYIGTTYSSSTDLFNWQGYGASLSTTAEGNSVFSSTSYLYFRVSDQGNCLVKVPVSFKGSYNFKDNKGTYSFTLSKAAN | not soluble |
| MGSDKIHHHHHHAGELRERVYLQTDKQFYLSGELVWMKFIATDLDQRLSDVSKVGYVELLDSASAVVQARLVLEKGVGDGCLQLPSTLPTGNYRLVAYTRYMRNEGEEVFFEKPLAVVNTFVTNETLLTDTLLPAYSFTRREDPVSVSPDRMTYDTRSGGEIRINGLPPDLQTLSVSIAGIDLYKPSARSGIVDWKQSMPTTGSSPADRKFLAEYEGPILTGKVIDLSTGEPSSKEAVRPLLGFSGGEIRLFGGQLGPAGEVTFFTRHISGTHEIVTVALSPSSSRYRVDIESPYATHPEKELPALRLNPAWQDELVKRSVGLQVLHAYRSDSLVREKAEKPWFQWQPDWSYLLDEYTRFTTMEEVVIEFIPGLRFRKMDGVRRLAVLTEERIGYTIGNSLVLLDGIPITDHEIIFKYDPLKIRKIDVYKGKYVFGGQIFDGIASFSSYEHNYPGLVVDNSTQFFDYEGTQAQRIFYMPAYRTEAEKRSPVPDFRHTLLWRPDIRTNGESSISIPFTTSDLTGDFTITIEGLTQTGEALYATEQFQVK | not soluble |
| MGSDKIHHHHHHALPDPVKPKAPKAVNPFHLGMAGYTFVNFDLDTTLKTLERLDIHYLCIKDFHLPLNSTDEQIRAFHDKCAAHKVTGYAVGPIYMKSEEEIDRAFDYAKRVGVKLIVGVPNYELLPYVDKKVKEYDFHYAIHLHGPDIKTYPDATDVWVHTKDLDPRIGMCLDVGHDLRNGCDPVADLKKYHTRVFDMHIKDVTDSSKAGVGIEIGRGKIDFPALIRMMREVNYTGMCSLEYEKDMKDPFLGIAESIGYFKAVSDLT | not soluble |
| MGSDKIHHHHHHALSSDYFTTTPQVLEAVGGKVPVTINGKFPEKYFKKNAVVEVTPVLKWEGGQVKGQPAVFQGEKVEGNDQTISYKMGGNYTMKTTFDYVPEMAKSELYLEFNAKVGKKTIAIPAVKIADGVISTSELINNTLSSANPALGDDAFQRIIKEAHNANIMFLIQQANIRSSELKTAKEFNKEVANVNDAENKKISNIEISAYASPDGGVKLNTGLAENREGNTTKLINKDLKKAKIEVPVDAKYTAQDWEGFQELVSKSNIQDKELILRVLSMYQDPEQRETEIKNISSVYKTLADEILPQLRRSRLTLNYEIIGKSDEEIANLAATDPKQLNVEEILYAATLTNDPAKKADIYTKASQQFPNDYRAFNNLGKLAYQAGDLDKAQSYVKKAESIKSAPEVNMNLGLIALAKGDKAAAESYLGKAAGAKELNETLGNLYVAQGQYERAVNAFGDTKTNSAALAQILAKDYNKAKNTLAGIATPDAYTDYLMAVLGARTNNTSMLTSSLKSAVAKNPALAKKAATDLEFAKYYTNADFMSIVK | not soluble |
| MGSDKIHHHHHHANVEVQKENFVFSIKGTDTLSLDKYELPSISPASKKPVMIFAFGGGFKGGDKADKGYIPYFEFLARNGFVVVSTDYRTTLKNLDPSKVSSPMDFIAALQHAIDTAVEDFYDATGFVINQSSDWNIDVEQIVASGSSAGAITVLQAEYDLCNGHELAKRLPAGFNYAGVISYAGAVSGVLPPHWEKMPCPIMLFHGDADKTVPFEQAAMENLGGLWGSSAVAKSLENLQASYYFYKVENAGHEISGLPMSRNQYDIMSFLSRQVLGDENLAITTDERVPGDTIVRKDFTVQDYILDNLR | not soluble |
| MGSDKIHHHHHHAPKGAEARMIATVDAEQARTLRFLEVMVNQNSGSRNLEGVRRLRDIVVPEFTALGFTSRWIPMERTGRAGHLVLTHKGRQGAKKLLLIGHLDTVFEPDSPFQTYVLNGEKATGPGVGDDKGGIAVILAAVRAMNAAGTLKGASIEVFLTGDEEEAGSPTEVARADLVAAARAADVALDFEGLSRENGRDMGSIARRSSQSWSLTVEAKSGHSSGVWGANAGDGAIYAAAKIVNAFRTELPEPWLTLNVGLIAGGAEAEVAEDNAHVSAQGKTNIIPGEVIARGDLRTLSPEQNRAAMRKMEEIVGRPYPGVTSARIAFSEGYPPMAPTEGNKALLARLNQVNATLGLPEMQPLDPMKRGAGDISFVAEYIDGLVGLGPHSTGDHAPGETVDVPSIWTQAKRAALLMTRLSAEKSAR | not soluble |
| MGSDKIHHHHHHAPLTFDETAFREDVKTLASDAFGGRAPLSDGEQKTLDYLTHAFKSMGLKGAFNGEYLQAVPMAKITADQSMVLKVGELSFTSGEDFTARTQRVVPKVELSGSDMVFVGYGINAPEYGWNDYAGIDVRGKTVVLLVNDPGFATQDPKVFKGNAMTYYGRWTYKYEEAARQGAEAVFIVHEDAPAAYGWGVVKNSNTNTKFTLVDGNNNQSQVGVMGWLQYAAAKQILAASGQDIEALKAAAKAPGFKAVPLTVQADLTLSNHIERAESHNVAAILPGNKNADEAVVMHAHWDHLGQIEEEGKTIILNGAVDNATGVAGVLALARHYAALPEAEKPARSMIFSAFTAEETGLIGAQYFAENPPLPTSKLVAFLNIDGMNVGEGVDYILRYGEGVSELETMLSDAAKAQNRQVKADPRPQNGLMFRSDHFALAQQGVPGLLFMSLGDTDPDYIAHKYHKGADDYSPDWQLGGVKQDLKLIEQILSRLANGSEWPKWLEESDFKARRAKDGR | not soluble |
| MGSDKIHHHHHHAQNGNVLGQVIRLPKSKGNIYQLLGLVTERSGYLFIYDSKIIDNEQTTSIKGGDYTIQEAIYAITGNKNLAIRAIENHLLLYLPESPSAPKSASVTPDSIQTYFSIEGSLQDQYTHEPIAFGSVGIGEAAIGTITNQNGEFRLKLPDSLRLSKVRFSHIGYLPQEIDSRELIDKHTVLSLEPKVISIQEVIVRLTNPKRLLQEMLDKRRSNYSQHPIYLTTFYREGVERKKGLVGLTEAVFKVYKASYHSNALADQVKLLKMRRISNEQEKDTLITKMKSGIYSCLVLDLMKQLPEFLDPSPDSPYTYAHTDITVVDDRLANVISFEQRKSINEPLYRGQIYIDMENNALLRVDFEVNPQYIEQAAGMFVERKSRNLRITPQKVAYTVSYKQWNGTYYINHIRGDLHFKIKKRRQLFNTNILHTWFEMVTCKIDTANVNRFSRIESLPTRTVFSDTHFNYDEGFWGDFNVILPEDKLNEAISRITSKIEETNY | not soluble |
| MGSDKIHHHHHHAQTDSMLIRPTVDKRVELLSIIFRLTGNPEYNRNDFKLYTDRIESHFSPYKNHELISFARSLVKTDGVSYDAVMSMAINLDNQFNLPADYGSLDSRWNRNQVGPFIKLLKKFVKDSRFDAFYHSNENLYQEAVSRFMPIYKSIDTQWYNDFYGQKSNDRFHIILSMSNGPGNYGPSVTDKENVHNVFSVMGAWVTDSVGMVVYPPELILPILIHEFNHSFINFDPEMFRTSGEQIYAAVGEQMARQAYGQWSIVLTEAMVRAAVIKYMKDHNFPAVEITKETVIQKTRGFVWISKLVDELEKYSSDRTTYPTLNSYMPRLAEAYTGFAQYTANYDSIRPKVVSIDEFTNGDTTVRSDIKTITVHFDRPLVGRGHSFNYGHLGMEAMPKIINVNYANDNRTVIIGVELLPGKEYGITLLGLSFRTPEGDAIKPYEISFKTAE | not soluble |
| MGSDKIHHHHHHAVFVAVGIRMITSGDGRTNRYDVEAGNNTYDNAVIENSKISEKNKIQNNQSMLDDIMNSTQYPKQLKDLALKNEEALEFVFDYPAEHVKEHTIDLTEEASMDSVPLFVQWDKRWGYEKYSGNFFAASGCGPTTLSMVVVYLTHNREASPIAVAKYSKEAGYSVDGSGSSWTLISEGCMHYGVKAKAVALDESRMKAELDEGHPIVVNVGPGDFTDTGHFMVITGYDDEGFSINDPNSIEKSGKRWLFKNISSQIRAVWSMYV | not soluble |
| MGSDKIHHHHHHAVQNTITIRSRGAKVYNKNGNAIVDARDKNIVLKEGTVAEYYGEPKYMVWRGHKKASFYNIGGNRYLLGYNVASLNDKGTLSIYRDSYIYDKTGKRVEKNTVLRKGTAINYVDKLNEKIETEKNLPKFYYYNMAIQRTHEGMLWVKYSVLSVKYHIINGKEYYKIANNKYIRATNIGYINGRQLFTTEATVTMGKATTKDGKYYARNMNGKITKTILPYKPGQKVVVDRSFQHSSKSFWRIKGTNYYIFGPDIKKFPIQALRR | not soluble |
| MGSDKIHHHHHHCDDNDGYSLGDIAVDWATVRVVGGDTYSLNADRWGTLWPAATAIPFYKPIDGQRVITYFNPLYDNYEGYDHAVKVEHNYNVLTKQVEDLTAENESEFGNDPVWVNKDMMWIGGGYLNVIFRQNLPVKEKHLVSLVRDMRATAAEGEDDGYIHLELRYKTYDDVTARQANGAVSFNLNSLDLTGKKGIKVKLNSVKDGETEVVFNLKGQSMPEEAKQVTLSDEVQIK | not soluble |
| MGSDKIHHHHHHDDPFYAPVYPEAPPTKIAATGSIYQDSQAASLYSDIRAHKVGDIITIVLKEATQAKKSAGNQIKKGSDMTLDPVYAGGSNLSLGGIPLDLRYKDSMNTKRESDADQSNSLDGSISANIMQVLNNGNLVVRGEKWISINNGDEFIRVTGIVRSQDIKPDNTIDSTRMANARIQYSGTGTFAEAQKVGWLSQFFMSDWWPF | not soluble |
| MGSDKIHHHHHHDKDFGGLENIGWNEKPLQITTRILTTKSTNFIQEFKEGSMLGLQITSGTVDDLYNGISTYKNVSVKAYRVNGKIRWQQSPEVILDSNEATIYAYYPYQEDINFNARQIPVKLAPNALETDDYMYGTHAIGQKAVNSTSPLVLLSMNHALSLISFQLNLSKGKTGAFIISSVQVGNKPGGTTLVSEGTLDITTGDIIGSTARSTSASTVLSLTNPVTLINEKYCDPMRLMVIPPSGTIGTGDVETLFTINGETYKFDIPANTQWEKGKKYLYKLSFNGRSLQLRDVSITDWLPGNDEGLIGNIM | not soluble |
